Reference: paper PMC6152618, “Antimicrobial Activity of Truncated and Polyvalent Peptides Derived from the FKCRRWQWRMKKGLA Sequence against Escherichia coli ATCC 25922 and Staphylococcus aureus ATCC 25923” (Molecules : A Journal of Synthetic Chemistry and Natural …, 2017)

Tests used:
[1] = test system: Escherichia coli ATCC 25922; format: cell-based; details: n = 2
Protocol: (§1) The MIC was determined using a microdilution assay. In brief, bacterial strains were incubated for 18 to 24 h at 37 °C in an Müller-Hinton (MH) broth until an optical density of 0.15 to 0.30 (620 nm) was obtained. Next, 90 μL of Mueller-Hinton broth (MHB) was mixed with […], and serial dilutions (200, 100, 50, 25, 12.5 and 6.2) were prepared in 96-well microplates (final volume 100 μL/well). Then, 10 μL of inoculum (2 × 10^6 CFU/mL) was added to each well. The final volume in each well was 100 μL. Then they were incubated for 24 h at 37 °C; the absorbance at 620 nm was measured using an Asys Expert Plus ELISA reader. For determining the MBC, a small sample was taken from each well using an inoculation loop, and then was spread on MH agar plates and incubated overnight at 37 °C. MBC was considered on the plate which presented no bacterial growth. Each of these tests was performed twice (n = 2).

[2] = test system: Staphylococcus aureus ATCC 25923; format: cell-based; details: n = 2
Protocol: as §1

[3] = microdilution, Mueller-Hinton broth, 24 h at 37 °C, absorbance 620 nm
[4] = sample of each well spread on MH agar, overnight 37 °C, no bacterial growth

B1: BLF: bovine lactoferrin protein, control (protein, UniProt P24627 20-708, looked up)
Lactotransferrin: APRKNVRWCTISQPEWFKCRRWQWRMKKLGAPSITCVRRAFALECIRAIAEKKADAVTLDGGMVFEAGRDPYKLRPVAAEIYGTKESPQTHYYAVAVVKKGSNFQLDQLQGRKSCHTGLGRSAGWIIPMGILRPYLSWTESLEPLQGAVAKFFSASCVPCIDRQAYPNLCQLCKGEGENQCACSSREPYFGYSGAFKCLQDGAGDVAFVKETTVFENLPEKADRDQYELLCLNNSRAPVDAFKECHLAQVPSHAVVARSVDGKEDLIWKLLSKAQEKFGKNKSRSFQLFGSPPGQRDLLFKDSALGFLRIPSKVDSALYLGSRYLTTLKNLRETAEEVKARYTRVVWCAVGPEEQKKCQQWSQQSGQNVTCATASTTDDCIVLVLKGEADALNLDGGYIYTAGKCGLVPVLAENRKSSKHSSLDCVLRPTEGYLAVAVVKKANEGLTWNSLKDKKSCHTAVDRTAGWNIPMGLIVNQTGSCAFDEFFSQSCAPGADPKSRLCALCAGDDQGLDKCVPNSKEKYYGYTGAFRCLAEDVGDVAFVKNDTVWENTNGESTADWAKNLNREDFRLLCLDGTRKPVTEAQSCHLAVAPNHAVVSRSDRAAHVKQVLLHQQALFGKNGKNCPDKFCLFKSETKNLLFNDNTECLAKLGGRPTYEEYLGTEYVTAIANLKKCSTSPLLEACAFLTR
>50 µM: MIC E. coli ATCC 25922 [1, 3] | MBC E. coli ATCC 25922 [1, 4] | MIC S. aureus ATCC 25923 [2, 3] | MBC S. aureus ATCC 25923 [2, 4]
